Data as given in US12441790B2, “Binding proteins to the human thrombin receptor, PAR4” (MONASH UNIVERSITY, priority 2017, dated 2025).

Assays:
human whole blood = experiment: Human whole blood thrombosis assay; type: cell-based; conditions: 10 minute endpoint; 5A.RC3 100 μg/ml, hirudin 800 U/ml
Procedure: Human whole blood collected in citrate (3.2%) was pre-incubated for 15 min at 37° C. with PE-conjugated anti-CD9 antibody (4 μg/mL) and an anti-fibrin antibody (5 μg/ml), and one of hirudin (800 U/ml), DMSO (1% v/v), PAR-1 antagonist E5555 (1 μM), anti-PAR4 antibody (0.2 mg/ml) or the combination of both PAR inhibitors. Whole blood was re-calcified with 5-7.5 mM CaCl2 (final concentration) to initiate coagulation, and drawn over glass microslides (1×0.1 mm internal diameter) coated with bovine type 1 collagen (250 μg/ml) at a fixed flow rate of 0.06 ml/min, resulting in a wall shear rate of 600 s^−1. Dual colour confocal fluorescence images were recorded at 488 and 561 nm excitation, collected through a 40× water immersion objective. Confocal z-stacks were continuously recorded for 2 min before modified, calcium-free Tyrode's buffer was flowed over the thrombi and z-stacks encompassing the entire height of the thrombus field were recorded over a period of 10 min. Platelet thrombi were defined using anti-CD9-PE and fibrin volume was quantified using average fluorescence of the thrombus field. Data were normalised against the hirudin baseline and expressed as a percentage of the control.
Thrombosis parameters including platelet deposition, thrombin activity, fibrin volume and ratio of fibrin per thrombus were measured in real-time over a period of 10 minutes in a whole blood thrombosis assay as described herein under conditions of coagulation.
Platelet deposition (PE-conjugated anti-CD9), thrombin activity (FRET-based thrombin probe), fibrin volume (Dylight650-conjugated anti-fibrin antibody) and the ratio of fibrin per thrombus at the 10 minute end-point is shown in FIG. 10A by confocal microscopy (to allow for volume measurements to be taken) using a Nikon Air with a 25× lens and 2× digital magnification.
The volume of human thrombi formed after 3 min was quantified by confocal microscopy in an ex vivo human whole blood thrombosis assay.

hPAR4 peptide [1] = molecular target: T1, hPAR4 peptide (Homo sapiens, UniProt Q96RI0); experiment: mAb capture SPR (Biacore, anti-mouse Fc capture); type: binding
T1 construct: host or cells: synthetic peptide
T1 sequence (Q96RI0 35-54 limits assumed): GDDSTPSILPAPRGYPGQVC
Procedure: (§1) Biacore analysis was performed on a Biacore T200 using two different methods either an anti-mouse Fc capture approach or using a similar method as described above using the ProteoOn system.
A series S CM5 sensor chip was activated with standard EDC/NHS amine coupling chemistry using the manufacturers recommended protocol with Goat anti-mouse IgG Fc. Anti-hPAR4 mAbs were captured at 1-2 ug/ml for 2 minutes at 10 ul/minute on flow cell 2 (FC2) and flow cell 1 (FC1) was used as a reference channel. […] Blank injections of buffer alone were also performed. All injections were performed in duplicate and in a random order. After each capture/injection/dissociation cycle the chip was regenerated with a 30 second injection of 0.1M Glycine pH2.0.
(§2) For the mAb capture method low levels of ligand mAb and analyte hPAR4 were used in an attempt to produce a 1:1 binding interaction, this method has been used successfully to measure kinetics and affinity KD's (Kamat V and Rafique A (2017) Analytical Biochemistry 530:75-86), despite using a whole IgG.
(§3) The kinetics of the binding interaction between the mAbs and hPAR4 was measured using Surface Plasmon Resonance (SPR; Biacore) by two different methods: 1. Anti-mouse Fc mAb capture method and 2. Streptavidin (SA) chip to capture biotinylated peptide. The ka(on) rate and kd(off) rates and KD were measured and fitted to a Langmuir model using the Biacore evaluation software.

hPAR4 peptide [2] = molecular target: T1, hPAR4 peptide; experiment: ELISA of purified mAbs on hPAR4 peptide; type: binding; conditions: dilutions of purified mAbs
Procedure: as §3
The experiment was completed with purified mAbs diluted in PBS instead of hybridoma supernatants.
The reactivity of seven purified anti-hPAR4 mAbs was analysed by ELISA (see Table 4).

[3] = molecular target: T2, hPAR4-biotinylated peptide (Homo sapiens, UniProt Q96RI0); experiment: SA chip biotin peptide SPR (Biacore, streptavidin capture); type: binding
T2 construct: host or cells: synthetic peptide
T2 sequence (Q96RI0 with tags, fused parts or gaps limits assumed): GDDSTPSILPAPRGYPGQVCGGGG
Procedure: as §1
A series S sensor chip SA was conditioned using the manufacturers recommended protocol and immobilised with 1 ug/ml hPAR4-biotinylated peptide on FC2 and hPAR1-biotinylated peptide as a control onto FC1. […] Blank injections of buffer alone were also performed. All injections were performed in duplicate and in a random order. After each capture/injection/dissociation cycle the chip was regenerated with a 30 second injection of 0.1M Glycine pH2.0.
as §2, §3

human platelets = experiment: Functional screen of hybridoma supernatants by platelet aggregation assay; type: cell-based; conditions: aggregation as % of control
Procedure: Platelet aggregation was measured by light transmission aggregometry in a 96-well plate format. Human isolated platelets (2×10^8/ml) were pre-treated for 10 mins at 37° C. with dimethylsulfoxide (DMSO) (1% v/v), the PAR1 antagonist vorapaxar (90 nM), the anti-PAR4 antibody 5RC3 (20-100 μg/ml), or a combination of vorapaxar and 5RC3. Platelets were treated with one of thrombin (0.1 U/ml) and aggregation was analysed at 37° C. in a FLUOstar OPTIMA plate reader (BMG Labtech) using a 595 nm excitation filter, for a period of 50 min (10 read cycles with 5 min double orbital shake period between each read). Optical density was normalised against the blank (maximum) and unstimulated platelets (minimum) and expressed as % maximum.
Thrombin-induced platelet aggregation in the presence of a PAR1 antagonist (i.e. PAR4-dependent aggregation) is shown for 30 monoclonal antibody supernatants binding to human platelets. Antibody supernatant was mixed with human platelets (2×10^8 cells) at a 1:1 ratio.

ka (hPAR4 peptide [1]) [M⁻¹ s⁻¹]	kd (hPAR4 peptide [1]) [s⁻¹]	reactivity with hPAR4 peptide by ELISA (hPAR4 peptide [2])	ka [3] [M⁻¹ s⁻¹]	kd [3] [s⁻¹]	Molecule	Functional screen on hybridoma supernatants (human platelets)	also measured
					hirudin [reference compound]		fibrin volume (human whole blood): abolished; platelet deposition (human whole blood): continued platelet deposition; thrombin activity (human whole blood): abolished
58400	0.00227	least reactive	1.84e+06	0.00111	5H.RF2: anti-PAR4 monoclonal antibody, IgG2a/K, SEQ ID NOs 107 and 108 (antibody, V domains shown, VH of 5H.RF2; VL of 5H.RF2) VH: QVQLQQWGAGLLKPSETLALTCAVYGGSLSDYYWSWIRQPPGKGLEWIGEINHSGTTNYNPSLKSRVTISVDTSKKQFSLKLSSVTAADTAVYYCAIEYSNSRGYYYGMDVWGQGTTVTVSS VL: DIQMTQSPSSLSASAGDRITITCRASQTISNYLNWYQQKPGKAPKLLIYAASSLQSGVPSRFSGSGSGTDFTLTISSLQPEDFASYYCRQNYNTPLTFGGGTKVEIK		
					MoB5H F2: hybridoma supernatant clone, second screening; likely parent of 5H.RF2 (antibody, V domains shown) VH: QVQLQQWGAGLLKPSETLALTCAVYGGSLSDYYWSWIRQPPGKGLEWIGEINHSGTTNYNPSLKSRVTISVDTSKKQFSLKLSSVTAADTAVYYCAIEYSNSRGYYYGMDVWGQGTTVTVSS VL: DIQMTQSPSSLSASAGDRITITCRASQTISNYLNWYQQKPGKAPKLLIYAASSLQSGVPSRFSGSGSGTDFTLTISSLQPEDFASYYCRQNYNTPLTFGGGTKVEIK	no	
					MoB5H H4: hybridoma supernatant clone, second screening; likely parent of 5H.RH4 (antibody, V domains shown) VH: QVQLQQWGAGLLKPSETLSLTCAVYGGSFSNYYWSWIHQPPGKGLEWIGEINHSGSTNYNPSLKSRVTISVDTSKKQFSLNLSSVTAADTAVYYCKVEHSSSSGHYYYGMDVWGQGTTVTVSS VL: DIQMTQSPSSLSASVGDRVTITCRASQTISYYLNWYQQKPGKAPKLLIYAASRLQSGVPSRFSGSGSGTDFTLTISSLQPEDFTTYYCQQSYSTPLTFGGGTKVGIK	Yes (+) (aggregation between 50-80% of control)	
14000	0.00146	least reactive	1.85e+06	0.000667	5I.RG1: anti-PAR4 monoclonal antibody, IgG3/K, SEQ ID NOs 45 and 46 (antibody, V domains shown, VH of 5I.RG1; VL of 5I.RG1) VH: QVQLQQWGAGLLKPSETLSLACAISSGSFSTYFWRWIRQPPGKGLEWIGEIIHTGSTTYNPSLKSRVTISVDTSKNQLSLKLSSVTAADTAVYYCAFEYSSSGGYYYGMDVWGQGTTVTVSS VL: DIQMTQSPSSLSASVGDRVTITCRASQSISSYLNWYQQIPGKAPNLLIYAASSLRSGVPSRFSGSGSGTDFTLTISSLQPEDFATYYCQQTYSTPLTFGGGTKVEIK		
					MoB5I G1: hybridoma supernatant clone, second screening; likely parent of 5I.RG1 (antibody, V domains shown) VH: QVQLQQWGAGLLKPSETLSLACAISSGSFSTYFWRWIRQPPGKGLEWIGEIIHTGSTTYNPSLKSRVTISVDTSKNQLSLKLSSVTAADTAVYYCAFEYSSSGGYYYGMDVWGQGTTVTVSS VL: DIQMTQSPSSLSASVGDRVTITCRASQSISSYLNWYQQIPGKAPNLLIYAASSLRSGVPSRFSGSGSGTDFTLTISSLQPEDFATYYCQQTYSTPLTFGGGTKVEIK	Yes (+) (aggregation between 50-80% of control)	
